Molecular target: Myc-tagged Bfl-1 (human, UniProt Q16548 1-175)
Experiment: fluorescence polarisation; competition: 0–10 μM unlabeled peptide titrated into 50 nM c-myc-tagged receptor plus 25 nM fluoresceinated BIM; 25 mM Tris pH 7.8, 50 mM NaCl, 1 mM EDTA, 5% DMSO, 0.001% v/v Triton-X; 23°C, 3 hr; fit to a complete competitive binding model
Details: both partners purified

Chain of Myc-tagged Bfl-1 (Q16548 whole entry): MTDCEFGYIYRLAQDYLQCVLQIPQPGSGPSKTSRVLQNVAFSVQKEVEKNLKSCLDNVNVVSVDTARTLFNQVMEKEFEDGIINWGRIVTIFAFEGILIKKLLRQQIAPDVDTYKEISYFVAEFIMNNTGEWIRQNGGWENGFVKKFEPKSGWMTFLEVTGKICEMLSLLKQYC

B1: BIM-FS2 (peptide)
chain: RPVIWIAQGLRRAGDEVNAYVAR
modifications: probably N-terminal acetyl and C-terminal amide; 23-mer 1f-4g assumed by analogy with PUMA/FS2; printed E2bV read as E2aV (2b is Ile in BIM, 2a is Glu and FS2 has Val at 2a); A2eA is no change / Myc …
Ki: 720 nM
